This is an account of results in PMC12692541.

The series has as its system HalTzlAAA homotrinucleopeptide (synthetic (designed)). As to the kind of experiment: fluorescence anisotropy. The following applies: none. A general note: In fluorescence polarisation assays a small probe gives low polarisation when free and higher when bound to something large.

What is called Kd is the equilibrium constant for the complex coming apart. Lower therefore signals tighter binding. CCAGAGAGCCUGGGAGCUCUCUGG [ΔTAR]: the Kd was determined as 161 µM.

Regarding CCAGAUUUGAGCCUGGGAGCUCUCUGG [TAR UUU], the Kd came to 30.1 µM.
